Source: paper PMC13121748, “Phase separation of PGL-3 driven by structured domains that oligomerize and interact with RGG motifs” (EMBO Reports, 2025)
Values joined by “and” are separate entries in the source; they are usually repeats but may differ in a detail not shown here. Equal entries are not always repeated. One block for each binder: values may come before it.

Assays:
[1] = biological target: T1, PGL-3 RGG region peptide (native) (Caenorhabditis elegans, UniProt G5EBV6 623-693); test: BLI; RNA on tip, RGG peptide in solution; 1:1 fit; KD ~2-fold higher than RGG:D1, value not given; BLI: 25 mM HEPES pH 7.5, 125 mM NaCl, 0.01 mg/ml BSA, 0.02% Tween-20, temperature not stated; condensate assays at 125 mM NaCl; conditions: tags: none; unlabeled in BLI; label: 5' biotin; single strand
T1 sequence: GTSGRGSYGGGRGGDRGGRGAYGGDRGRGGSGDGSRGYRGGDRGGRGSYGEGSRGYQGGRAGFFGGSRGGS

[2] = biological target: the molecule itself; test: mass photometry; unlabeled D1-D2 at 50 to 100 nM in 125 mM NaCl, 25 mM HEPES pH 7.5, TwoMP (Refeyn)
[3] = biological target: the molecule itself; test: cross-linking; XL-MS: 7.5 uM full-length PGL-3, 2 mM DSBU, 1 h room temperature, 25 mM HEPES pH 7.5, 125 mM NaCl (condensing) or 500 mM NaCl (non-condensing); trypsin digest, LC-MS/MS, Scout search
[4] = biological target: PGL-3(D1-D2) (C. elegans) (UniProt G5EBV6)
[5] = biological target: PGL-3(D1-D2) (C. elegans) (UniProt G5EBV6); remark: listed apart in the source
PGL-3(D1) [6] = biological target: T2, PGL-3(D1) (C. elegans, trace-labelled with DyLight 488 (NHS ester) in the FA crosslinking; biotinylated with NHS-PEG12-Biotin when immobilised in BLI); test: BLI; biotinylated D1 on streptavidin tips, RGG peptide in solution; 125 mM NaCl, 0.01 mg/ml BSA, 0.02% Tween-20, 25 mM HEPES pH 7.5; 1:1 binding model; Octet Red96
T2 chain: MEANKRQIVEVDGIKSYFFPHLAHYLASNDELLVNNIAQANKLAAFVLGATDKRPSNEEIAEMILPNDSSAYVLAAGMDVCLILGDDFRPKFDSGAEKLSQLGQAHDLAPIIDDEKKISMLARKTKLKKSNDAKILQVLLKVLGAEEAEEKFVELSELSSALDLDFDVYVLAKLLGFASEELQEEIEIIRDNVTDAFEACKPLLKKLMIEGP

[7] = biological target: PGL-3(D1-D2) (C. elegans) (UniProt G5EBV6); remark: listed apart in the source
PGL-3(D1) [8] = biological target: T2, PGL-3(D1); test: BLI

Binder: UUUUUUUUUUUUUUUUUUUUUUUUUUUUUU (ssRNA) [poly(U) 30-nt RNA]
binding result [1]: binds

B1: PGL-3(D1-D2) (domain or fragment, C. elegans, UniProt G5EBV6 1-447, looked up)
chain: MEANKRQIVEVDGIKSYFFPHLAHYLASNDELLVNNIAQANKLAAFVLGATDKRPSNEEIAEMILPNDSSAYVLAAGMDVCLILGDDFRPKFDSGAEKLSQLGQAHDLAPIIDDEKKISMLARKTKLKKSNDAKILQVLLKVLGAEEAEEKFVELSELSSALDLDFDVYVLAKLLGFASEELQEEIEIIRDNVTDAFEACKPLLKKLMIEGPKIDSVDPFTQLLLTPQEESIEKAVSHIVARFEEASAVEDDESLVLKSQLGYQLIFLVVRSLADGKRDASRTIQSLMPSSVRAEVFPGLQRSVFKSAVFLASHIIQVFLGSMKSFEDWAFVGLAEDLESTWRRRAIAELLKKFRISVLEQCFSQPIPLLPQSELNNETVIENVNNALQFALWITEFYGSESEKKSLNQLQFLSPKSKNLLVDSFKKFAQGLDSKDHVNRIIESLEK
modifications: unlabeled in mass photometry; trace-labelled with DyLight 488 (partitioning) or Alexa Fluor 647 (pelleting) by NHS ester
notes: PGL-3, C. elegans, the first 447 amino acids, which span the folded domains D1 and D2; also called D1-D2 domain; not shown: 6xHis-MBP-6xHis, N-terminal, cleaved
stoichiometry N [2]: 2 and 4 and 6

B2: full-length, untagged PGL-3 (natural protein, C. elegans, UniProt G5EBV6 1-693, looked up)
chain: MEANKRQIVEVDGIKSYFFPHLAHYLASNDELLVNNIAQANKLAAFVLGATDKRPSNEEIAEMILPNDSSAYVLAAGMDVCLILGDDFRPKFDSGAEKLSQLGQAHDLAPIIDDEKKISMLARKTKLKKSNDAKILQVLLKVLGAEEAEEKFVELSELSSALDLDFDVYVLAKLLGFASEELQEEIEIIRDNVTDAFEACKPLLKKLMIEGPKIDSVDPFTQLLLTPQEESIEKAVSHIVARFEEASAVEDDESLVLKSQLGYQLIFLVVRSLADGKRDASRTIQSLMPSSVRAEVFPGLQRSVFKSAVFLASHIIQVFLGSMKSFEDWAFVGLAEDLESTWRRRAIAELLKKFRISVLEQCFSQPIPLLPQSELNNETVIENVNNALQFALWITEFYGSESEKKSLNQLQFLSPKSKNLLVDSFKKFAQGLDSKDHVNRIIESLEKSSSSEPSATAKQTTTSNGPTTVSTAAQVVTVEKMPFSRQTIPCEGTDLANVLNSAKIIGESVTVAAHDVIPEKLNAEKNDNTPSTASPVQFSSDGWDSPTKSVALPPKISTLEEEQEEDTTITKVSPQPQERTGTAWGSGDATPVPLATPVNEYKVSGFGAAPVASGFGQFASSNGTSGRGSYGGGRGGDRGGRGAYGGDRGRGGSGDGSRGYRGGDRGGRGSYGEGSRGYQGGRAGFFGGSRGGS
notes: PGL-3, C. elegans P granule protein, full length (D1, D2, internal IDR, C-terminal RGG region; residues to 693); also called PGL-3(FL); FL; not shown: 6xHis-MBP-6xHis, N-terminal, cleaved
binding result [3]: binds

fraction of D1-D2 in the pellet (dense phase) with equimolar RGG peptide against buffer control [4]: 15% | viscosity of D1-D2 condensates formed with equimolar RGG peptide against buffer (embedded beads) [5]: 1.25 fold | fold faster koff than RGG:poly(U) RNA (PGL-3(D1) [6]): 10 fold | fold faster kon than RGG:poly(U) RNA (PGL-3(D1) [6]): 20 fold | fold lower KD than RGG:poly(U) RNA (PGL-3(D1) [6]): 2 fold | partition coefficient of the RGG peptide in D1-D2 condensates (5 uM each, in trans) [7]: 1.3 | Kd (PGL-3(D1) [8]): 1.63 µM
B3: PGL-3(RGG) synthetic peptide spanning the RGG region (peptide)
chain: GTSGRGSYGGGRGGDRGGRGAYGGDRGRGGSGDGSRGYRGGDRGGRGSYGEGSRGYQGGRAGFFGGSRGGS
modifications: trace-labelled with Alexa Fluor 647 (NHS ester) in the FA crosslinking and partitioning; biotinylated with NHS-PEG12-Biotin when immobilised in BLI
